The test system of this series is Escherichia coli TOP10. Kind of series: shrunken log2 fold change of peptide-encoding DNA abundance (4.5 h post-induction vs induction); higher = less antimicrobial activity (less host growth inhibition). Conditions: time post-induction: 4.5 h; library: site-saturation at positions 5, 18, 19, 20.

Results on 125 sequences are retold here after the supplement of paper PMC9112550, “Optimization of the antimicrobial peptide Bac7 by deep mutational scanning” (BMC Biology, 2022).
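Also: peptides expressed intracellularly from a pBAD plasmid library in pooled LB shake-flask culture, induced with 0.3% L-arabinose, DNA abundance read by NGS, three biological replicates, DESeq2 with apeglm shrinkage.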

As for RRIRVRPPRLPRPRPRPNNQPRP, the “shrunken log2 fold change” value was -0.483. In the case of RRIRCRPPRLPRPRPRPYHSPRP, the “shrunken log2 fold change” value was -0.73. RRIRPRPPRLPRPRPRPTEKPRP: the “shrunken log2 fold change” value was found to be 0.0615. As for RRIRIRPPRLPRPRPRPNKGPRP, the “shrunken log2 fold change” value was -0.137. With RRIRSRPPRLPRPRPRPQDKPRP, the “shrunken log2 fold change” value is -0.0231.

In the case of RRIRFRPPRLPRPRPRPAFPPRP, the “shrunken log2 fold change” value was found to be 0.00578. To RRIRLRPPRLPRPRPRPYGQPRP belongs -0.0159. With RRIRWRPPRLPRPRPRPPPWPRP, the “shrunken log2 fold change” value came out at 0.616. For RRIRFRPPRLPRPRPRPTWFPRP, the “shrunken log2 fold change” value amounted to 0.0971. For the sequence RRIRTRPPRLPRPRPRPHMIPRP, the “shrunken log2 fold change” value is -0.138. For RRIRERPPRLPRPRPRPNSYPRP, the “shrunken log2 fold change” value is -0.433. As for RRIRCRPPRLPRPRPRPVGGPRP, the “shrunken log2 fold change” value is 0.273.

Take RRIRPRPPRLPRPRPRPQDLPRP: the “shrunken log2 fold change” value is -0.13.

Take RRIRKRPPRLPRPRPRPGQGPRP: the “shrunken log2 fold change” value was determined as 0.205.

Turning to RRIRPRPPRLPRPRPRPHVKPRP, the “shrunken log2 fold change” value was -0.013. As to RRIRERPPRLPRPRPRPVVIPRP, the “shrunken log2 fold change” value was -0.251. For the sequence RRIRVRPPRLPRPRPRPIKKPRP, the “shrunken log2 fold change” value is -0.015.

As to RRIRHRPPRLPRPRPRPYPLPRP, the “shrunken log2 fold change” value was -0.641. As to RRIRKRPPRLPRPRPRPWHKPRP, the “shrunken log2 fold change” value is -0.145. Regarding RRIRCRPPRLPRPRPRPTVPPRP, the “shrunken log2 fold change” value turned out to be 0.247. For RRIRCRPPRLPRPRPRPLPFPRP the value was -0.71; for RRIRCRPPRLPRPRPRPRMQPRP, 0.349; for RRIRERPPRLPRPRPRPRKWPRP, 0.316.

In the case of RRIRERPPRLPRPRPRPIKAPRP, the “shrunken log2 fold change” value is -0.00435. Turning to RRIRNRPPRLPRPRPRPAWYPRP, the “shrunken log2 fold change” value is -0.178. Turning to RRIRRRPPRLPRPRPRPEEAPRP, the “shrunken log2 fold change” value worked out at 1.51. For the sequence RRIRDRPPRLPRPRPRPVWNPRP, the “shrunken log2 fold change” value came out at 0.00745.

Turning to RRIRTRPPRLPRPRPRPKREPRP, the “shrunken log2 fold change” value worked out at 0.319. As for RRIRHRPPRLPRPRPRPQCNPRP, the “shrunken log2 fold change” value is -0.169.

As for RRIRKRPPRLPRPRPRPHEIPRP, the “shrunken log2 fold change” value stood at 0.704. On to RRIRNRPPRLPRPRPRPPDQPRP, for which the “shrunken log2 fold change” value was 0.184. RRIRERPPRLPRPRPRPASRPRP: the “shrunken log2 fold change” value was 0.0348. With RRIRPRPPRLPRPRPRPVKCPRP, the “shrunken log2 fold change” value was -0.0701. As for RRIRNRPPRLPRPRPRPKQCPRP, the “shrunken log2 fold change” value was -0.293. To RRIRGRPPRLPRPRPRPDHEPRP belongs 0.858; to RRIRKRPPRLPRPRPRPHLVPRP, 0.0297. To RRIRRRPPRLPRPRPRPFNLPRP belongs -0.109; to RRIRNRPPRLPRPRPRPQARPRP, -0.0332; to RRIRYRPPRLPRPRPRPRWWPRP, 0.189. As to RRIRMRPPRLPRPRPRPHEAPRP, the “shrunken log2 fold change” value is 0.0628. Take RRIRGRPPRLPRPRPRPQEIPRP: the “shrunken log2 fold change” value is 0.427.

Consider RRIRKRPPRLPRPRPRPGHAPRP, for which the “shrunken log2 fold change” value stood at 0.667. As to RRIRYRPPRLPRPRPRPRHRPRP, the “shrunken log2 fold change” value is 0.0433. Take RRIRTRPPRLPRPRPRPHKTPRP: the “shrunken log2 fold change” value is -0.035. With RRIRQRPPRLPRPRPRPYHTPRP, the “shrunken log2 fold change” value was -0.00448.

RRIRLRPPRLPRPRPRPNLTPRP: the “shrunken log2 fold change” value is -0.299. For RRIRVRPPRLPRPRPRPETAPRP the value was 0.406. For RRIRCRPPRLPRPRPRPKFTPRP, the “shrunken log2 fold change” value was -0.391. RRIRTRPPRLPRPRPRPFAHPRP: the “shrunken log2 fold change” value was -0.039. To RRIRVRPPRLPRPRPRPSCEPRP belongs -0.303. Turning to RRIRLRPPRLPRPRPRPKPPPRP, the “shrunken log2 fold change” value was determined as 0.586.

As for RRIRNRPPRLPRPRPRPGDHPRP, the “shrunken log2 fold change” value is -0.0463. On to RRIRVRPPRLPRPRPRPCHMPRP, for which the “shrunken log2 fold change” value was -0.19. To RRIRERPPRLPRPRPRPWMQPRP belongs -0.327. For RRIRTRPPRLPRPRPRPFCHPRP the value was 0.0326; for RRIRCRPPRLPRPRPRPFDDPRP, 0.0116. For the sequence RRIRGRPPRLPRPRPRPTFAPRP, the “shrunken log2 fold change” value came out at 0.997. As to RRIRQRPPRLPRPRPRPWSWPRP, the “shrunken log2 fold change” value is -0.0208. To RRIRSRPPRLPRPRPRPMCCPRP belongs 0.109. Take RRIRYRPPRLPRPRPRPQTMPRP: the “shrunken log2 fold change” value was -0.23.

On to RRIRPRPPRLPRPRPRPISQPRP, for which the “shrunken log2 fold change” value is -0.0721. In the case of RRIRARPPRLPRPRPRPFMKPRP, the “shrunken log2 fold change” value stood at 0.528.

Turning to RRIRDRPPRLPRPRPRPVEMPRP, the “shrunken log2 fold change” value was -0.0847. Take RRIRERPPRLPRPRPRPDGQPRP: the “shrunken log2 fold change” value was -0.388.

As to RRIRIRPPRLPRPRPRPDIYPRP, the “shrunken log2 fold change” value is -0.357. For RRIRFRPPRLPRPRPRPHVDPRP the value was -0.00919. As for RRIRNRPPRLPRPRPRPYYMPRP, the “shrunken log2 fold change” value was -0.416. RRIRIRPPRLPRPRPRPSDRPRP: the “shrunken log2 fold change” value was -0.24. As to RRIRDRPPRLPRPRPRPHTYPRP, the “shrunken log2 fold change” value was -0.163.

Take RRIRNRPPRLPRPRPRPRGVPRP: the “shrunken log2 fold change” value was 0.195. With RRIRCRPPRLPRPRPRPIDKPRP, the “shrunken log2 fold change” value was -0.161.

As for RRIRGRPPRLPRPRPRPVRMPRP, the “shrunken log2 fold change” value was 0.963.

As for RRIRIRPPRLPRPRPRPEPQPRP, the “shrunken log2 fold change” value is -0.0904.

With RRIRMRPPRLPRPRPRPVDLPRP, the “shrunken log2 fold change” value is 0.405. Consider RRIRTRPPRLPRPRPRPFMEPRP, for which the “shrunken log2 fold change” value was -0.228. For the sequence RRIRMRPPRLPRPRPRPRFHPRP, the “shrunken log2 fold change” value came to 0.142. As for RRIRQRPPRLPRPRPRPTWQPRP, the “shrunken log2 fold change” value was 0.186. To RRIRFRPPRLPRPRPRPGLMPRP belongs -0.125; to RRIRERPPRLPRPRPRPLDQPRP, 0.09; to RRIRTRPPRLPRPRPRPNEPPRP, -0.102. RRIRMRPPRLPRPRPRPMIFPRP: the “shrunken log2 fold change” value worked out at 0.0369.

For RRIRHRPPRLPRPRPRPSGDPRP, the “shrunken log2 fold change” value was -0.107. For the sequence RRIRKRPPRLPRPRPRPYAVPRP, the “shrunken log2 fold change” value was found to be 0.916.

As for RRIRTRPPRLPRPRPRPVVEPRP, the “shrunken log2 fold change” value turned out to be 0.0529. Turning to RRIRERPPRLPRPRPRPWHEPRP, the “shrunken log2 fold change” value is -0.0932. For RRIRLRPPRLPRPRPRPVDFPRP the value was 0.0727; for RRIRARPPRLPRPRPRPAIFPRP, 0.562; for RRIRIRPPRLPRPRPRPMQTPRP, -0.0288. For the sequence RRIRHRPPRLPRPRPRPRARPRP, the “shrunken log2 fold change” value is 0.814. To RRIRFRPPRLPRPRPRPQHGPRP belongs -0.126.

In the case of RRIRPRPPRLPRPRPRPFASPRP, the “shrunken log2 fold change” value came to 0.132. To RRIRARPPRLPRPRPRPWALPRP belongs 0.172; to RRIRQRPPRLPRPRPRPTRYPRP, 0.511; to RRIRWRPPRLPRPRPRPYWIPRP, -0.81. Consider RRIRRRPPRLPRPRPRPQMAPRP, for which the “shrunken log2 fold change” value stood at 0.455.

For the sequence RRIRRRPPRLPRPRPRPRVPPRP, the “shrunken log2 fold change” value was found to be 0.745.

On to RRIRERPPRLPRPRPRPAYHPRP, for which the “shrunken log2 fold change” value is -0.223.

Take RRIRRRPPRLPRPRPRPEHAPRP: the “shrunken log2 fold change” value is 0.686. In the case of RRIRWRPPRLPRPRPRPGNPPRP, the “shrunken log2 fold change” value is -0.139. RRIRARPPRLPRPRPRPDGAPRP: the “shrunken log2 fold change” value is 0.673. RRIRGRPPRLPRPRPRPDTLPRP: the “shrunken log2 fold change” value turned out to be 0.169. Turning to RRIRHRPPRLPRPRPRPECMPRP, the “shrunken log2 fold change” value is -0.0379. Regarding RRIRLRPPRLPRPRPRPLKPPRP, the “shrunken log2 fold change” value amounted to 0.171. For the sequence RRIRTRPPRLPRPRPRPSNCPRP, the “shrunken log2 fold change” value is -0.414. Consider RRIRGRPPRLPRPRPRPMNWPRP, for which the “shrunken log2 fold change” value is 0.179. Regarding RRIRRRPPRLPRPRPRPACMPRP, the “shrunken log2 fold change” value turned out to be 0.479. RRIRWRPPRLPRPRPRPAQTPRP: the “shrunken log2 fold change” value turned out to be 0.476. To RRIRIRPPRLPRPRPRPFFIPRP belongs -0.641; to RRIRTRPPRLPRPRPRPKMFPRP, -0.0043. Turning to RRIRNRPPRLPRPRPRPPQYPRP, the “shrunken log2 fold change” value was -0.0544. For RRIRARPPRLPRPRPRPETIPRP, the “shrunken log2 fold change” value was 0.541.

RRIRMRPPRLPRPRPRPEIVPRP: the “shrunken log2 fold change” value stood at 0.574. To RRIRRRPPRLPRPRPRPDYPPRP belongs 0.0596; to RRIRSRPPRLPRPRPRPMNYPRP, -0.162; to RRIRGRPPRLPRPRPRPVIKPRP, 0.0737. As for RRIRPRPPRLPRPRPRPHQRPRP, the “shrunken log2 fold change” value is -0.232.

Consider RRIRGRPPRLPRPRPRPNQNPRP, for which the “shrunken log2 fold change” value was 0.4. Take RRIRFRPPRLPRPRPRPKSYPRP: the “shrunken log2 fold change” value was -0.201. As to RRIRHRPPRLPRPRPRPEGPPRP, the “shrunken log2 fold change” value was -0.0401.

For the sequence RRIRSRPPRLPRPRPRPHAAPRP, the “shrunken log2 fold change” value was determined as 0.331. Take RRIRWRPPRLPRPRPRPVNQPRP: the “shrunken log2 fold change” value worked out at 0.0575. To RRIRYRPPRLPRPRPRPIGPPRP belongs -0.00962. With RRIRKRPPRLPRPRPRPHAHPRP, the “shrunken log2 fold change” value stood at 0.428. For the sequence RRIRDRPPRLPRPRPRPLFKPRP, the “shrunken log2 fold change” value is -0.221. Turning to RRIRCRPPRLPRPRPRPPAKPRP, the “shrunken log2 fold change” value was determined as 0.741.
